According to patent US20200317768A1 (published 2020):
Positions count from the first letter of the chain named.

T1: human FcγRIIb extracellular domain, C-terminal His-tag (human, UniProt P31994 43-217)
T1 construct: also called human FcgRIIb; FcgRIIb
T1 sequence: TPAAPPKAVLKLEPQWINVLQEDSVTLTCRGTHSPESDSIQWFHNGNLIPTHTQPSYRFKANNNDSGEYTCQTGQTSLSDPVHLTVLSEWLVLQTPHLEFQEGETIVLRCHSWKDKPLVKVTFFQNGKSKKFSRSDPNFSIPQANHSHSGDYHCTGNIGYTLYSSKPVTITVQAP

T2: human FcγRIIaR extracellular domain, C-terminal His-tag (human, UniProt P12318 34-217)
T2 construct: also called human FcγRIIa (type R); FcgRIIaR
T2 chain: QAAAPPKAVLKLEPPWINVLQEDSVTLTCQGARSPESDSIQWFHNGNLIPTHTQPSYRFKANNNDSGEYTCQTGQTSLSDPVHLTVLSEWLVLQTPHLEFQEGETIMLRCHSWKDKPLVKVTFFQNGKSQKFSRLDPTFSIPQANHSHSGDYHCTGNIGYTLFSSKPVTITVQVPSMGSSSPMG

T3: human FcγRIIaH extracellular domain, C-terminal His-tag (human, UniProt P12318 34-217)
T3 construct: also called human FcγRIIa (type H); FcgRIIaH
T3 sequence: T2 chain with R134H

T4: cynomolgus monkey FcγRIIa3 extracellular domain, C-terminal His-tag (cynomolgus monkey)
T4 construct: also called cyno FcγRIIa3; cynoFcgRIIa3
T4 chain: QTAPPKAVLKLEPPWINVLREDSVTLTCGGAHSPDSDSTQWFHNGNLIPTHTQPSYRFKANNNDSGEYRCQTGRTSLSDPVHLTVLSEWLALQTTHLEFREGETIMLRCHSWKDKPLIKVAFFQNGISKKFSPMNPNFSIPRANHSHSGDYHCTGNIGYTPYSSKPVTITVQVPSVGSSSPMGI

T5: cynomolgus monkey FcγRIIa2 extracellular domain, C-terminal His-tag (cynomolgus monkey)
T5 construct: also called cyno FcγRIIa2; cynoFcgRIIa2
T5 chain: T4 chain with I127K, K130N, P133H, R142Q

T6: cynomolgus monkey FcγRIIa1 extracellular domain, C-terminal His-tag (cynomolgus monkey)
T6 construct: also called cyno FcγRIIa1; cynoFcgRIIa1
T6 chain: T4 chain with T95P, A121T, S128A, P133H, N135D

T7: cynomolgus monkey FcγRIIb extracellular domain, C-terminal His-tag (cynomolgus monkey)
T7 construct: also called cyno FcγRIIb; cynoFcγRIIb
T7 chain: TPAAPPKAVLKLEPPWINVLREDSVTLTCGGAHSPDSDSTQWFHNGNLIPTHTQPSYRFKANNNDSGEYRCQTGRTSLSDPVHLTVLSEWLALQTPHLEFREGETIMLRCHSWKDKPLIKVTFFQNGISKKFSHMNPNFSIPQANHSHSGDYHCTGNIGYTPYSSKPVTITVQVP

T8: cynomolgus monkey FcγRIIIaS extracellular domain, C-terminal His-tag (cynomolgus monkey, UniProt Q8SPW2 21-206 at identity 1.00))
T8 construct: also called cyno FcγRIIIaS; cynoFcγRIIIaS
T8 chain: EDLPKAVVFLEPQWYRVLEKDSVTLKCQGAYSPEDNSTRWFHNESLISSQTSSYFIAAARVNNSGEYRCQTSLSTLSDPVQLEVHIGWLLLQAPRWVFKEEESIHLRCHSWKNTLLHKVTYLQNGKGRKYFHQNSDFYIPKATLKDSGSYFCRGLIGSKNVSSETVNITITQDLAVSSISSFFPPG

B1: M103205H795-MY211/M103202L889-SK1 (antibody, human IgG1, kappa)
heavy: QVTLKESGPVLVKPTETLTLTCTVSGIDLSHDDISWVRQAPGKGLEWVGIISYAGSTYYASWAKGRLTISKDTSKNQVVLTMTNMDPVDTATYYCARGVPAYSHGGDLWGQGTLVTVSSASTKGPSVFPLAPSSKSTSGGTAALGCLVKDYFPEPVTVSWNSGALTSGVHTFPAVLQSSGLYSLSSVVTVPSSSLGTQTYICNVNHKPSNTKVDKKVEPKSCDKTHTCPPCPAPELLNGPVVFLFPPKPKDTLMISRTPEVTCVVVDVSDEDPEVKFNWYVDGVEVHNAKTKPREEQYNSTYRVVSVLTVLHQDWLNGKEYKCKVSNTALPKPIEKTISKAKGQPREPQVYTLPPSREEMTKNQVSLTCLVKGFYPSDIAVEWESNGQPENNYKTTPPVLDSDGSFFLYSKLTVDKSRWQQGNVFSCSVMHEALHNHYTQKSLSLSP
light: DIVMTQSPATLSLSPGERATLSCTSSQSVYHANWLSWFQQKPGQPPKLLIYWASTLAYGVPSRFSGSGSGTDFTLTISSLQPEDAATYYCAGGYGGGRYAFGQGTKVEIKRTVAAPSVFIFPPSDEQLKSGTASVVCLLNNFYPREAKVQWKVDNALQSGNSQESVTEQDSKDSTYSLSSTLTLSKADYEKHKVYACEVTHQGLSSPVTKSFNRGEC
notes: Substitutions introduced into M103205H795-SG1; expressed with M103202L889-SK1 as light chain
B2: M103205H795-MY434/M103202L889-SK1 (antibody, human IgG1, kappa)
heavy: B1 heavy with L237W, V241S, T328K
light: B1 light
notes: as for B1
B3: M103205H795-MY288/M103202L889-SK1 (antibody, human IgG1, kappa)
heavy: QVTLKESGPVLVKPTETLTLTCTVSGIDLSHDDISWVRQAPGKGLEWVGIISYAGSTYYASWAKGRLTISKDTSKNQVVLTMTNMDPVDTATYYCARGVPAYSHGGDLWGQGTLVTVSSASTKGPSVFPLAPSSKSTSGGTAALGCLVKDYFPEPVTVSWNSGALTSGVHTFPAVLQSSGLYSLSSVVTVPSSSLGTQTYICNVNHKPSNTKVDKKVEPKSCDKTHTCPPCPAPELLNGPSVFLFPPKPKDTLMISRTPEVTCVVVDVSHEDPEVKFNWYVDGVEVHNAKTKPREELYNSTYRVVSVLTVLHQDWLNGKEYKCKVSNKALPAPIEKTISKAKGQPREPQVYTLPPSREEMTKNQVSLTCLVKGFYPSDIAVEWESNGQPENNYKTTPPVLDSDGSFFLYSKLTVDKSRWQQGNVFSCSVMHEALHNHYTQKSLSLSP
light: B1 light
notes: as for B1
B4: M103205H795-MY330/M103202L889-SK1 (antibody, human IgG1, kappa)
heavy: B1 heavy with L237W, V241S, D270E, T328K, P398M
light: B1 light
notes: as for B1
B5: M103205H795-MY289/M103202L889-SK1 (antibody, human IgG1, kappa)
heavy: B1 heavy with V241S, D270H, T328K, P398M
light: B1 light
notes: as for B1
B6: M103205H795-MY212/M103202L889-SK1 (antibody, human IgG1, kappa)
heavy: B1 heavy with Q297L
light: B1 light
notes: as for B1

Biological target: T1, human FcγRIIb extracellular domain, …
Assay: SPR (Biacore), antibody captured, FcgR analyte

Row | Kd [nM] | Binder
1 | 520 | B1
2 | 1400 | B2
3 | 6200 | B3
4 | 670 | B4
5 | 2900 | B5
6 | 630 | B6

Biological target: T9, human FcγRIIIaV extracellular domain, C-terminal His-tag (human, UniProt P08637 17-208)
T9 construct: also called human FcgRIIIaV; FcgRIIIaV
Assay: SPR (Biacore), antibody captured, FcgR analyte

T9 sequence (P08637 17-208 F176V): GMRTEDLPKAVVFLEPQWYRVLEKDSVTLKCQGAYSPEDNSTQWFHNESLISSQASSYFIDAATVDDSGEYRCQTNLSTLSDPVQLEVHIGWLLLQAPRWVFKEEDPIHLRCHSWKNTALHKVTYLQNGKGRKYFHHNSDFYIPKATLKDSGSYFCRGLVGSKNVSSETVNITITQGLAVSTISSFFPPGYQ

Row | Kd [nM] | Binder
7 | 4800 | B1
8 | 16000 | B2
9 | 68000 | B3
10 | 12000 | B4
11 | 7700 | B5
12 | 6500 | B6

Biological target: T2, human FcγRIIaR extracellular domain, …
Assay: SPR (Biacore), antibody captured, FcgR analyte

Row | Kd [nM] | Binder
13 | 13000 | B1
14 | 1900 | B2
15 | 8500 | B3
16 | 900 | B4
17 | 5500 | B5
18 | 1300 | B6

Biological target: T3, human FcγRIIaH extracellular domain, …
Assay: SPR (Biacore), antibody captured, FcgR analyte

Row | Kd [nM] | Binder
19 | 1100 | B1
20 | 16000 | B2
21 | 1400 | B3
22 | 960 | B4
23 | 830 | B5
24 | 800 | B6

Biological target: T4, cynomolgus monkey FcγRIIa3 …
Assay: SPR (Biacore), antibody captured, FcgR analyte

Row | Kd [nM] | Binder
25 | 2700 | B1
26 | 64000 | B2
27 | 11000 | B3
28 | 4700 | B4
29 | 86000 | B5
30 | 29000 | B6

Biological target: T5, cynomolgus monkey FcγRIIa2 …
Assay: SPR (Biacore), antibody captured, FcgR analyte

Row | Kd [nM] | Binder
31 | 530 | B1
32 | 2400 | B2
33 | 2000 | B3
34 | 2200 | B4
35 | 1500 | B5
36 | 530 | B6

Biological target: T6, cynomolgus monkey FcγRIIa1 …
Assay: SPR (Biacore), antibody captured, FcgR analyte

Row | Kd [nM] | Binder
37 | 750 | B1
38 | 2900 | B2
39 | 1500 | B3
40 | 2200 | B4
41 | 1300 | B5
42 | 560 | B6

Biological target: T7, cynomolgus monkey FcγRIIb extracellular …
Assay: SPR (Biacore), antibody captured, FcgR analyte

Row | Kd [nM] | Binder
43 | 470 | B1
44 | 740 | B2
45 | 3200 | B3
46 | 610 | B4
47 | 740 | B5
48 | 370 | B6

Biological target: T8, cynomolgus monkey FcγRIIIaS …
Assay: SPR (Biacore), antibody captured, FcgR analyte

Row | Kd [nM] | Binder
49 | 5000 | B1
50 | 11000 | B2
51 | 13000 | B3
52 | 6600 | B4
53 | 5200 | B5
54 | 2600 | B6
